Here are results for twelve molecules from patent EP1088233B9, “A BIOLUMINESCENCE RESONANCE ENERGY TRANSFER (BRET) SYSTEM AND ITS USE” (PerkinElmer BioSignal Inc., priority 1998, dated 1999).

Read-outs that look alike come from different tables or passages of the source. Some results are limits rather than exact numbers.

The subject of data set [1] is HeLa cells transfected with the apoptosis sensor. The data set is described as follows: Apoptosis sensor (Rluc-caspase-EYFP) BRET assay. The format is cell-based. The note with it: staurosporine 1mM, 5 hours of apoptosis induction, 10 minutes after coelenterazine h. The source says:
A BRET apoptosis sensor was engineered by introducing a caspase-3 recognition site in the linker regionof the Rluc-EYFP fusionconstruct. Upon inductionof apoptosis, caspase-3 should recognize and cleave the linker region which should separate Rluc of EYFP and thereby decrease the BRET ratio over time.
pCEP4/Rluc-EYFP and pCEP4/Rluc-caspase-EYFP DNAs were transfected into HeLa cell using LipofectAMINE (BRL/Gibco-Life technologies) in 100mm dishes as described in the manufacturer's protocol. 24 hours post-transfection, transfected cells were harvested and distributed into 96-well microplates (white Optiplate from Packard) at a density of 30,000 cells per well. The following day, cells are induced to undergo apoptosis using staurosporine 1mM dissolved in ISCOVE media (BRL/Gibco-Life technologies) without serum and phenol red at 37°C (total volume here is […]) for 5 hours. […] of BRET buffer (PBS Ca^2+/Mg^2+ + glucose without aprotinin) and […] of coelenterazine h […] is added to start the bioluminescent reaction. Light emissions are detected using the BRETCount (read length sec for each filter, temperature 25°C). Data was collected 10 minutes after addition of coelenterazine h. The assay was done in quadruplicate.
Figure 31 gives representative BRET ratio changes in HeLa cells after 5 hours of apoptosis induction by staurosporine. […]
For orientation: In BRET a luciferase serves as donor, and the signal depends on an acceptor being close.

Data set [2] deals with EGF receptors expressed endogenously by GH4-C1 cells. Put plainly: cell-based or functional assay.
Data set [3] deals with T1, calcitonin receptor (Cricetulus griseus, UniProt G3GXI2).
T1 sequence (G3GXI2 40-539): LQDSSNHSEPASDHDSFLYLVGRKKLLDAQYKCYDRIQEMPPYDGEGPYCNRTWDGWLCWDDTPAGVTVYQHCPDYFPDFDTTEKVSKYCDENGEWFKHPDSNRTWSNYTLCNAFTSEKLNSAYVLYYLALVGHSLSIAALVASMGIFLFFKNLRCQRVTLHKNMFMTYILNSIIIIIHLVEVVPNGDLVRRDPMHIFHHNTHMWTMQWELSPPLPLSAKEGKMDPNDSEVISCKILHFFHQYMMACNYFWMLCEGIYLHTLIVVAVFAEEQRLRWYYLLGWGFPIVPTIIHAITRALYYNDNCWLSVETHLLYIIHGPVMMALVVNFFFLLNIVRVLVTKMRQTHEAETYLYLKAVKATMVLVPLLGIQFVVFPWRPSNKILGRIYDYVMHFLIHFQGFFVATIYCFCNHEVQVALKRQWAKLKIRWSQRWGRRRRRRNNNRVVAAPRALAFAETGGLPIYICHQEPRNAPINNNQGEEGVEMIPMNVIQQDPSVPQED
The data set is described as follows: cAMP sensor (CBP:CREB) BRET assay in CHO-K1 cells, endogenous calcitonin receptor. The format is cell-based. The procedure:
The pCDNA3./Rluc-CBP-NLS and pCDNA3.1 /EYFP-CREB-NLS DNA constructs were transiently transfected into CHO-K1, CHO-CCRS or CHW-β2 cell lines using LipofectAMINE™ (BRL/Gibco-Life technology, Gaethersburg, MD) using equal amount (4 µg) of DNA for each construct in 100mm dishes.
BRET assay using the transfected cells in suspension. At 48 hours post-transfection, the transfected cells were starved for 2 hours in a mixture of PBS + Ca2 + 1 mM/Mg2 + 0.5mM + glucose 1 g/l +aprotinin 2 µg/ml at 37°C before being harvested, washed with a mixture of PBS Ca2+/Mg2+ + glucose + aprotinin 2 µg/ml and counted. […]
BRET assay using transfected cells attached onto the bottom of the microplate. […] At 48 hours post-transfection, the transfected cells were starved as previously mentioned, washed and then analyzed without being harvested.
The assay conditions for both methods (cell in suspension or attached), cells were in PBS Ca2+ Mg2+ + glucose + aprotinin 2 µg/ml in volume of […]. […] Each well was read using both filters for 1 second each.
The CHO-K1 cells were transfected with both constructs. At 48 hours post-transfection, the cells were starved for 2 hours, washed, harvested and counted. […] The microplate was loaded into the BRETCount and light outputs at 470nm and 550nm were determined at several points to determine a timecourse (fig. 10). […]

Data set [4] deals with T1, calcitonin receptor. The note with it: literature values; read-out: EC50 found in literature for a functional assay; cited from earlier work.
A further data set addresses T2, Rluc (Renilla reniformis, UniProt P27652).
T2 sequence (P27652 1-311): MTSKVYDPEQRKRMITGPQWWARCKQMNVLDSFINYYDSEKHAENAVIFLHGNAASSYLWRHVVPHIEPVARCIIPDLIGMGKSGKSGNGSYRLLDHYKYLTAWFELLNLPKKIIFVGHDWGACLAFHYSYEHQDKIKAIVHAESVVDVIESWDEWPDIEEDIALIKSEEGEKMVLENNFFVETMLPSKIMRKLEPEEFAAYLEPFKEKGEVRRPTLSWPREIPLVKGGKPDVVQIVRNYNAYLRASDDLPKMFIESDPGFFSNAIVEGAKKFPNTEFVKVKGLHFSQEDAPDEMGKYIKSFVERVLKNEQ
The data set is described as follows: Rluc luminescence with coelenterazine derivatives in cells transfected with pRluc-CMV (LumiCount). More on the design: Normalized RLU: dose or concentration left out as unconfirmed. The note with it: for Normalized RLU: derivatives, 4 minutes after addition; for half-life of the reaction (Rluc luminescence): coelenterazine f 1 mM.

In data set [5] the target is EYFP•KaiB fusion protein (Aequorea victoria; Synechococcus (cyanobacterium)) (UniProt Q79PF5). The data set is described as follows: BRET luminescence spectra, co-expression in E. coli.
Chain of EYFP•KaiB fusion protein (Aequorea victoria; Synechococcus (cyanobacterium)) (Q79PF5 whole entry, the tested form may be a part): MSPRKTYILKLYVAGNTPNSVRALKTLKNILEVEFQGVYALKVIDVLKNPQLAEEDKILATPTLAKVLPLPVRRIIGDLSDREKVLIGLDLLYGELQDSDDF
Data set [6] deals with EYFP•KaiA fusion protein (Aequorea victoria; Synechococcus (cyanobacterium)) (UniProt Q79PF6). Put plainly: BRET imaging of E. coli cultures through 480 and 530 nm filters, cooled-CCD camera.
Chain of EYFP•KaiA fusion protein (Aequorea victoria; Synechococcus (cyanobacterium)) (Q79PF6 whole entry, the tested form may be a part): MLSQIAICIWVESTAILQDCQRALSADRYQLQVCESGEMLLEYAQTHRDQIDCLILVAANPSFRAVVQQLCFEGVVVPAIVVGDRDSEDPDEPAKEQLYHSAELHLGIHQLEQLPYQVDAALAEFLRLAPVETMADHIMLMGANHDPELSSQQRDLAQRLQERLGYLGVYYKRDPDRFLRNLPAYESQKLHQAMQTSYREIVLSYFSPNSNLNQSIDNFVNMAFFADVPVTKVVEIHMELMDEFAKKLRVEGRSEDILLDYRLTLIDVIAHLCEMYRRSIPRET
Data set [7] has as its target EYFP•KaiB fusion protein (Aequorea victoria; Synechococcus (cyanobacterium)) (UniProt Q79PF5). The data set is described as above.
For data set [8], the target named is enhanced yellow fluorescent protein (EYFP) (Aequorea victoria). The data set is described as follows: BRET in co-transfected cells, LumiCount, black microplate, 200 ul, 5 uM coelenterazine, 50,000 cells per well.
The target is the same in data set [9]. The data set is described as follows: BRET in co-transfected cells, LumiCount, white microplate, 100 ul, 5 uM coelenterazine, 50,000 cells per well.
For data set [10] the target is unchanged. The data set is described as follows: BRET in co-transfected cells, LumiCount, white microplate, 200 ul, 5 uM coelenterazine, 50,000 cells per well.
Data set [11] is described as follows: Cell viability by trypan blue dye in BRET assay media. The format is cell-based. The note with it: hamster, cho cells. The protocol:
The effect of the type of media on the luminescence of the Rluc was assayed in absence or in the presence of various amount of DTT. Transfected CHO cells were collected and redistributed in 96 well plate using different media conditions (Figures 24-26). Luminescence timecourses at 470nm (TopCount) were performed at 25°C upon coelenterazine addition. The effects of three different media were assayed: PBS Ca^2+/Mg^2+ (Figure 24), PBS Ca^2+/Mg^2+ + glucose (Figure 25) and DMEM without phenol red (Figure 26).
Similar results were found in presence of 100mM DTT: PBS alone gave higher long term counts. As expected, increasing the concentration of DTT improved Rluc stability in all three media. Unfortunately, high amounts of DTT (50 and 100mM) which gave the best stability, damaged the cells: viability was assayed using trypan blue dye and decreased more than 20% over a period of 2 hours. […] This concentration was chosen for the BRET assays. […] However, DTT is not necessary for the BRET reaction to occur efficiently: as it acts as a boost for the Rluc long term emission.
In order to avoid cell damage during the assay procedure and timecourse experiments, an analysis was conducted to determine whether the use of aprotinin perturbs ratiometric measurements. Aprotinin is a protease inhibitor which is often used during cell culture to maintain cell integrity. […]

Data set [12] in a line: Effect of DTT on BRET ratio in stable cell lines expressing Rluc or Rluc::EYFP (BRETCount). To be noted: DTT 10mM in PBS+Ca2+/Mg2++glucose. The format is cell-based. The protocol:
PBS=PBS+Ca^2+/Mg^2++glucose. DTT 10mM. […] PBS=PBS+Ca^2+/Mg^2++glucose DTT 10mM.
In PBS (Ca ^2+/Mg^2++glucose) alone, BRET ratios are lower than in presence of DTT. When DTT is added, ratios increase by almost 0.1 BRET unit.

Data set [13] addresses calcitonin receptor expressed endogenously by CHO-K1 cells. Put plainly: cell-based or functional assay.
Data set [14] addresses Rluc-caspase-EYFP (apoptosis sensor) (Renilla reniformis; Aequorea victoria) (UniProt P27652). The data set is described as follows: cell-based or functional assay.

Regarding `CN[C@@H]1C[C@H]2O[C@@](C)([C@@H]1OC)n1c3ccccc3c3c4c(c5c6ccccc6n2c5c31)C(=O)NC4` [staurosporine], in data set [1], the “BRET ratio change (decrease)” value was 0.1 unit. EGF (ligand): in [2], the EC50 of the EGF dose response, BRET ratio of the TKR sensor (Rluc-PTB + EYFP-SH2) in GH4-C1 cells at 45 minutes post induction was 920 pM. Regarding calcitonin, the EC50 – broadly, the concentration at which the effect is half-maximal – in the data set with calcitonin receptor [3] (CHO-K1 transfected with cAMP sensor, attached cells, data point at 45 minutes after addition of coelenterazine) was 27 pM; with calcitonin receptor [4], 30 to 60 pM. Further, in the data set with calcitonin receptor [3] (calcitonin 2 nM and 10nM, CHO-K1 cells in suspension, compared to buffer alone), the “BRET ratio over time” value is listed as “Ratios increased over time”. Consider `Oc1ccc(-c2cn3c(O)c(Cc4ccccc4)nc3c(CC3CCCC3)n2)cc1` [hcp], for which, at Rluc (HeLa cells), the “Normalized RLU” value was found to be 48144 RLU.

Take “RLUC•KaiB fusion protein (from UniProt Q79PF5 1-102)”: the share of the RLUC luminescence for which energy transfer occurs in [5] was determined as 50%. Moreover, the 530/480nm ratio of luminescence in data set [6] was determined as 0.4; in data set [7], 0.9.

As for `Oc1ccc(Cc2nc3c(Cc4ccccc4)nc(-c4ccc(O)cc4)cn3c2O)cc1` [native, coelenterazine], the “Normalized RLU” value at Rluc (HeLa cells) was 2030 RLU. In the case of `Oc1ccc(-c2cn3c(O)c(Cc4ccc(F)cc4)nc3c(Cc3ccccc3)n2)cc1` [f, coelenterazine f], the “half-life of the reaction (Rluc luminescence)” value on Rluc (CHO cells) amounted to 11 min. Besides, at Rluc (HeLa cells), the “half-life of the reaction (Rluc luminescence)” value amounted to 13 min and the “Normalized RLU” value is given as 180126 RLU.

For the molecule “Renilla luciferase (RLUC) (from UniProt P27652 1-311) (enzyme)”, the Ratio 530/480 stood at 0.76 in [8], 0.9 in data set [9] and 0.87 in [10]. Turning to `Oc1ccc(-c2cn3c(O)c(Cc4ccccc4)nc3c(Cc3ccccc3)n2)cc1` [h, coelenterazine h], the “Normalized RLU” value on Rluc (HeLa cells) is on record as 173547 RLU. Consider `OC(CS)C(O)CS` (stereo not shown) [DTT], for which, in data set [11] (DTT 10mM, over 2 hours, read-out: viability loss), the cytotoxicity at 2 h, 10000 µM is below 15%. Moreover, the cytotoxicity at 2 h in [11] (DTT 50 and 100mM, over a period of 2 hours, read-out: viability decrease) is above 20%. Moreover, the “increase of BRET ratio” value in [12] was around 0.1 BRET unit. As to calcitonin (peptide), in [13], the EC50 of the calcitonin dose response, BRET ratio of the cAMP sensor in attached CHO-K1 cells at 45 minutes was 27 pM.

“caspase-3 (endogenous in HeLa cells) (from UniProt P42574 29-277) (enzyme)”: the BRET ratio change in HeLa cells after 5 hours of apoptosis induction by staurosporine in data set [14] was found to be 0.1 unit.
